Experimental data: patent US20140274782A1, “AFFINITY REAGENTS AND METHODS FOR DETECTION, PURIFICATION, AND PROTEOMIC ANALYSIS OF METHYLATED PROTEINS” (The Board of Trustees of the Leland Stanford Junior …, priority 2013, published 2014)

B1: NHP2L1: protein with methylated lysine identified in 3xMBT pull-down (protein, UniProt P55769 1-128, looked up)
NHP2-like protein 1: MTEADVNPKAYPLADAHLTKKLLDLVQQSCNYKQLRKGANEATKTLNRGISEFIVMAADAEPLEIILHLPLLCEDKNVPYVFVRSKQALGRACGVSRPVIACSVTIKEGSQLKQQIQSIQQSIERLLV
B2: CMAS: protein with methylated lysine identified in 3xMBT pull-down (protein, UniProt Q8NFW8 1-434, looked up)
N-acylneuraminate …: MDSVEKGAATSVSNPRGRPSRGRPPKLQRNSRGGQGRGVEKPPHLAALILARGGSKGIPLKNIKHLAGVPLIGWVLRAALDSGAFQSVWVSTDHDEIENVAKQFGAQVHRRSSEVSKDSSTSLDAIIEFLNYHNEVDIVGNIQATSPCLHPTDLQKVAEMIREEGYDSVFSVVRRHQFRWSEIQKGVREVTEPLNLNPAKRPRRQDWDGELYENGSFYFAKRHLIEMGYLQGGKMAYYEMRAEHSVDIDVDIDWPIAEQRVLRYGYFGKEKLKEIKLLVCNIDGCLTNGHIYVSGDQKEIISYDVKDAIGISLLKKSGIEVRLISERACSKQTLSSLKLDCKMEVSVSDKLAVVDEWRKEMGLCWKEVAYLGNEVSDEECLKRVGLSGAPADACSTAQKAVGYICKCNGGRGAIREFAEHICLLMEKVNNSCQK
B3: eEF1A1: protein with methylated lysine identified in 3xMBT pull-down (protein, UniProt P68104 2-462, looked up)
Elongation factor 1-alpha 1: GKEKTHINIVVIGHVDSGKSTTTGHLIYKCGGIDKRTIEKFEKEAAEMGKGSFKYAWVLDKLKAERERGITIDISLWKFETSKYYVTIIDAPGHRDFIKNMITGTSQADCAVLIVAAGVGEFEAGISKNGQTREHALLAYTLGVKQLIVGVNKMDSTEPPYSQKRYEEIVKEVSTYIKKIGYNPDTVAFVPISGWNGDNMLEPSANMPWFKGWKVTRKDGNASGTTLLEALDCILPPTRPTDKPLRLPLQDVYKIGGIGTVPVGRVETGVLKPGMVVTFAPVNVTTEVKSVEMHHEALSEALPGDNVGFNVKNVSVKDVRRGNVAGDSKNDPPMEAAGFTAQVIILNHPGQISAGYAPVLDCHTAHIACKFAELKEKIDRRSGKKLEDGPKFLKSGDAAIVDMVPGKPMCVESFSDYPPLGRFAVRDMRQTVAVGVIKAVDKKAAGAGKVTKSAQKAQKAK
modifications: methylated lysine
notes: protein with methylated lysine identified in 3xMBT pull-down
B4: MCM4: protein with methylated lysine identified in 3xMBT pull-down (protein, UniProt P33991 2-863, looked up)
DNA replication licensing …: SSPASTPSRRGSRRGRATPAQTPRSEDARSSPSQRRRGEDSTSTGELQPMPTSPGVDLQSPAAQDVLFSSPPQMHSSAIPLDFDVSSPLTYGTPSSRVEGTPRSGVRGTPVRQRPDLGSAQKGLQVDLQSDGAAAEDIVASEQSLGQKLVIWGTDVNVAACKENFQRFLQRFIDPLAKEEENVGIDITEPLYMQRLGEINVIGEPFLNVNCEHIKSFDKNLYRQLISYPQEVIPTFDMAVNEIFFDRYPDSILEHQIQVRPFNALKTKNMRNLNPEDIDQLITISGMVIRTSQLIPEMQEAFFQCQVCAHTTRVEMDRGRIAEPSVCGRCHTTHSMALIHNRSLFSDKQMIKLQESPEDMPAGQTPHTVILFAHNDLVDKVQPGDRVNVTGIYRAVPIRVNPRVSNVKSVYKTHIDVIHYRKTDAKRLHGLDEEAEQKLFSEKRVELLKELSRKPDIYERLASALAPSIYEHEDIKKGILLQLFGGTRKDFSHTGRGKFRAEINILLCGDPGTSKSQLLQYVYNLVPRGQYTSGKGSSAVGLTAYVMKDPETRQLVLQTGALVLSDNGICCIDEFDKMNESTRSVLHEVMEQQTLSIAKAGIICQLNARTSVLAAANPIESQWNPKKTTIENIQLPHTLLSRFDLIFLLLDPQDEAYDRRLAHHLVALYYQSEEQAEEELLDMAVLKDYIAYAHSTIMPRLSEEASQALIEAYVDMRKIGSSRGMVSAYPRQLESLIRLAEAHAKVRLSNKVEAIDVEEAKRLHREALKQSATDPRTGIVDISILTTGMSATSRKRKEELAEALKKLILSKGKTPALKYQQLFEDIRGQSDIAITKDMFEEALRALADDDFLTVTGKTVRLL
modifications: methylated lysine
notes: as for B3
B5: DDX1: protein with methylated lysine identified in 3xMBT pull-down (protein, UniProt Q92499 1-740, looked up)
ATP-dependent RNA helicase …: MAAFSEMGVMPEIAQAVEEMDWLLPTDIQAESIPLILGGGDVLMAAETGSGKTGAFSIPVIQIVYETLKDQQEGKKGKTTIKTGASVLNKWQMNPYDRGSAFAIGSDGLCCQSREVKEWHGCRATKGLMKGKHYYEVSCHDQGLCRVGWSTMQASLDLGTDKFGFGFGGTGKKSHNKQFDNYGEEFTMHDTIGCYLDIDKGHVKFSKNGKDLGLAFEIPPHMKNQALFPACVLKNAELKFNFGEEEFKFPPKDGFVALSKAPDGYIVKSQHSGNAQVTQTKFLPNAPKALIVEPSRELAEQTLNNIKQFKKYIDNPKLRELLIIGGVAARDQLSVLENGVDIVVGTPGRLDDLVSTGKLNLSQVRFLVLDEADGLLSQGYSDFINRMHNQIPQVTSDGKRLQVIVCSATLHSFDVKKLSEKIMHFPTWVDLKGEDSVPDTVHHVVVPVNPKTDRLWERLGKSHIRTDDVHAKDNTRPGANSPEMWSEAIKILKGEYAVRAIKEHKMDQAIIFCRTKIDCDNLEQYFIQQGGGPDKKGHQFSCVCLHGDRKPHERKQNLERFKKGDVRFLICTDVAARGIDIHGVPYVINVTLPDEKQNYVHRIGRVGRAERMGLAISLVATEKEKVWYHVCSSRGKGCYNTRLKEDGGCTIWYNEMQLLSEIEEHLNCTISQVEPDIKVPVDEFDGKVTYGQKRAAGGGSYKGHVDILAPTVQELAALEKEAQTSFLHLGYLPNQLFRTF
B6: GTF2I: protein with methylated lysine identified in 3xMBT pull-down (protein, UniProt P78347 2-998, looked up)
General transcription factor …: AQVAMSTLPVEDEESSESRMVVTFLMSALESMCKELAKSKAEVACIAVYETDVFVVGTERGRAFVNTRKDFQKDFVKYCVEEEEKAAEMHKMKSTTQANRMSVDAVEIETLRKTVEDYFCFCYGKALGKSTVVPVPYEKMLRDQSAVVVQGLPEGVAFKHPENYDLATLKWILENKAGISFIIKRPFLEPKKHVGGRVMVTDADRSILSPGGSCGPIKVKTEPTEDSGISLEMAAVTVKEESEDPDYYQYNIQAGPSETDDVDEKQPLSKPLQGSHHSSEGNEGTEMEVPAEDSTQHVPSETSEDPEVEVTIEDDDYSPPSKRPKANELPQPPVPEPANAGKRKVREFNFEKWNARITDLRKQVEELFERKYAQAIKAKGPVTIPYPLFQSHVEDLYVEGLPEGIPFRRPSTYGIPRLERILLAKERIRFVIKKHELLNSTREDLQLDKPASGVKEEWYARITKLRKMVDQLFCKKFAEALGSTEAKAVPYQKFEAHPNDLYVEGLPENIPFRSPSWYGIPRLEKIIQVGNRIKFVIKRPELLTHSTTEVTQPRTNTPVKEDWNVRITKLRKQVEEIFNLKFAQALGLTEAVKVPYPVFESNPEFLYVEGLPEGIPFRSPTWFGIPRLERIVRGSNKIKFVVKKPELVISYLPPGMASKINTKALQSPKRPRSPGSNSKVPEIEVTVEGPNNNNPQTSAVRTPTQTNGSNVPFKPRGREFSFEAWNAKITDLKQKVENLFNEKCGEALGLKQAVKVPFALFESFPEDFYVEGLPEGVPFRRPSTFGIPRLEKILRNKAKIKFIIKKPEMFETAIKESTSSKSPPRKINSSPNVNTTASGVEDLNIIQVTIPDDDNERLSKVEKARQLREQVNDLFSRKFGEAIGMGFPVKVPYRKITINPGCVVVDGMPPGVSFKAPSYLEISSMRRILDSAEFIKFTVIRPFPGLVINNQLVDQSESEGPVIQESAEPSQLEVPATEEIKETDGSSQIKQEPDPTW
modifications: methylated lysine
notes: as for B3

Tested on: 3×MBT domain of L3MBTL1
Assay: SILAC proteomic pull-down 3×MBT vs 3×MBTD355N from 293T nuclear extract, LC-MS/MS
Format: binding, human
Conditions: SILAC ratio, 293T nuclear extract pull-down; * = protein identified in only one labeling experiment
Protocol: Protein pull-downs were performed as described above using 600 μg of nuclear extract prepared with isotopic labels as indicated. After eluting with glutathione, 3×MBT domain was removed by dialysis into high salt and rebinding to GSH-sepharose. Bound proteins were separated by SDS-PAGE and analyzed by in-gel tryptic digest followed by LC-MS/MS. Peptides were identified using MaxQuant version 1.2.2.5 (Cox and Mann (2008) Nat. Biotechnol. 26, 1367-1372) and candidate methylated peptides were verified by manual inspection.
For stable isotope labeling by amino acids in cell culture (SILAC) experiments HEK 293T cells were grown for at least six doublings in DMEM for SILAC supplemented with 10% dialyzed fetal bovine serum (FBS), 230 mg/L L-proline and either 100 mg/L each of L-lysine and L-arginine (“light” medium), D4-L-lysine and ^13C6-L-arginine (“medium” media), or ^13C6^15N2-L-lysine and ^13C6^15N4-L-arginine (Thermo Scientific). Heavy methyl labeling used DMEM without L-Methionine or L-Cysteine supplemented with D3^13C-L-Methionine (Sigma), L-Cysteine (Sigma) and 10% dialyzed FBS.
600 μg of nuclear extract was incubated overnight rotating at 4° C. with 20 μl packed 3×MBT or 3×MBTD355N beads in a total volume of 250 μL with binding buffer. Supernatant was removed and saved for use as a loading control. Beads were washed 4×5 minutes with 0.5 mL binding buffer. Protein was eluted by incubating in 20 μL elution buffer (10 mg/mL glutathione in 50 mM Tris pH 8.0) rotating at 4° C. for four hours. Elutions from 3×MBT and 3×MBTD355N were combined and dialyzed overnight at 4° C. against 10,000× volume of dissociation buffer (50 mM Tris pH 7.5, 750 mM NaCl) in a 0.1 mL Slide-A-Lyzer MINI Dialysis Device with 3.5K molecular weight cutoff (Thermo Scientific). 80 μL of GSH-Sepharose was prepared by washing briefly three times with 0.5 mL binding buffer. Dialyzed proteins were added to the GSH-Sepharose and incubated 4 hours rotating at 4° C. to deplete the GST-fusion domains. Supernatant was transferred to a fresh 1.5 mL tube. Proteins were separated by SDS-PAGE on a 10% polyacrylamide gel and stained using SilverQuest Silver Staining Kit (Life Technologies). Lanes were excised, residual 3×MBT band was removed, and gel was diced into 0.5 mm cubes. Gel pieces were destained and processed by in-gel digestion (Carlson et al. (2011) Science Signaling 4) with sequencing grade trypsin (Promega) and the peptide sample was dried completely in a vacuum centrifuge. To prepare a loading control, 2 μL each of light and heavy nuclear extract were combined, 6 μL of 8M urea was added, proteins were denatured by adding 2 μL of 100 mM dithiothreitol in digest buffer (50 mM ammonium bicarbonate) and heating to 60° C. for 1 hour, cysteine was alkylated by adding 2.2 μL 100 mg/mL iodoacetamide in digest buffer and incubating 1 hour at room temperature in darkness, and proteins were digested by adding 80 μL trypsin (Promega) at 12.5 ng/μL in digest buffer and incubating overnight at room temperature in darkness. Digestion was stopped by adding 10 μL of 10% formic acid.
Each experiment consisted of two sets of pull-downs: “forward” labeling with 3×MBT incubated with light nuclear extract and 3×MBTD355N with medium extract, and a second “reverse” labeling experiment with the label conditions swapped. Proteins were included in the results if they were quantified in both labeling directions. To determine reproducibility the entire experiment including the label swap was duplicated using independent protein preparations and a mass spectrometer at another institution.
For 3×MBT pull-down experiment #1 the gel lane was processed and peptides were loaded off-line onto a first dimension trap column (Waters Xbridge, C18, 10 μm particle size, 100 Å pore size, 5 cm packing length, 150 μm column i.d.). […]

Q: How did the “Protein Ratio 3xMBT/D355N” value turn out when B1 was run?
A: 4.4*

Q: For B2, which “Protein Ratio 3xMBT/D355N” value is on record?
A: 4.2

Q: B3 was tested. Which “Protein Ratio 3xMBT/D355N” value did it give?
A: 5.2

Q: For B4, which “Protein Ratio 3xMBT/D355N” value is on record?
A: 6.6

Q: How did the “Protein Ratio 3xMBT/D355N” value turn out when B5 was run?
A: 11.2

Q: How did the “Protein Ratio 3xMBT/D355N” value turn out when B6 was run?
A: 1.5
